Laboratory results as given in IntAct's records for PubMed 29995851.

B1: Protein patched homolog 1 (Homo sapiens), Q13635-1 (parent)
chain: MASAGNAAEPQDRGGGGSGCIGAPGRPAGGGRRRRTGGLRRAAAPDRDYLHRPSYCDAAFALEQISKGKATGRKAPLWLRAKFQRLLFKLGCYIQKNCGKFLVVGLLIFGAFAVGLKAANLETNVEELWVEVGGRVSRELNYTRQKIGEEAMFNPQLMIQTPKEEGANVLTTEALLQHLDSALQASRVHVYMYNRQWKLEHLCYKSGELITETGYMDQIIEYLYPCLIITPLDCFWEGAKLQSGTAYLLGKPPLRWTNFDPLEFLEELKKINYQVDSWEEMLNKAEVGHGYMDRPCLNPADPDCPATAPNKNSTKPLDMALVLNGGCHGLSRKYMHWQEELIVGGTVKNSTGKLVSAHALQTMFQLMTPKQMYEHFKGYEYVSHINWNEDKAAAILEAWQRTYVEVVHQSVAQNSTQKVLSFTTTTLDDILKSFSDVSVIRVASGYLLMLAYACLTMLRWDCSKSQGAVGLAGVLLVALSVAAGLGLCSLIGISFNAATTQVLPFLALGVGVDDVFLLAHAFSETGQNKRIPFEDRTGECLKRTGASVALTSISNVTAFFMAALIPIPALRAFSLQAAVVVVFNFAMVLLIFPAILSMDLYRREDRRLDIFCCFTSPCVSRVIQVEPQAYTDTHDNTRYSPPPPYSSHSFAHETQITMQSTVQLRTEYDPHTHVYYTTAEPRSEISVQPVTVTQDTLSCQSPESTSSTRDLLSQFSDSSLHCLEPPCTKWTLSSFAEKHYAPFLLKPKAKVVVIFLFLGLLGVSLYGTTRVRDGLDLTDIVPRETREYDFIAAQFKYFSFYNMYIVTQKADYPNIQHLLYDLHRSFSNVKYVMLEENKQLPKMWLHYFRDWLQGLQDAFDSDWETGKIMPNNYKNGSDDGVLAYKLLVQTGSRDKPIDISQLTKQRLVDADGIINPSAFYIYLTAWVSNDPVAYAASQANIRPHRPEWVHDKADYMPETRLRIPAAEPIEYAQFPFYLNGLRDTSDFVEAIEKVRTICSNYTSLGLSSYPNGYPFLFWEQYIGLRHWLLLFISVVLACTFLVCAVFLLNPWTAGIIVMVLALMTVELFGMMGLIGIKLSAVPVVILIASVGIGVEFTVHVALAFLTAIGDKNRRAVLALEHMFAPVLDGAVSTLLGVLMLAGSEFDFIVRYFFAVLAILTILGVLNGLVLLPVLLSFFGPYPEVSPANGLNRLPTPSPEPPPSVVRFAMPPGHTHSGSDSSDSEYSSQTTVSGLSEELRHYEAQQGAGGPAHQVIVEATENPVFAHSTVVHPESRHHPPSNPRQQPHLDSGSLPPGRQGQQPRRDPPREGLWPPPYRPRRDAFEISTEGHSGPSNRARWGPRGARSHNPRNPASTAMGSSVPGYCQPITTVTASASVTVAVHPPPVPGPGRNPRGGLCPGYPETDHGLFEDPHVPFHVRCERRDSKVEVIELQDVECEERPRGSSSN

Variants of: B1
Details: with shh_human SHH

Row | effect of a mutation on the interaction | Variant
1 | decreasing interaction strength | L254A;W256A
2 | disrupting interaction | E221A;Y222A;L223A;Y224A
